Experimental data: PMC10247153, “Chromatin Sensing by the Auxiliary Domains of KDM5C Regulates Its Demethylase Activity and Is Disrupted by X-linked Intellectual Disability Mutations”

Molecular target: T1, KDM5C ARID (Homo sapiens, UniProt P41229 73-188)
T1 sequence: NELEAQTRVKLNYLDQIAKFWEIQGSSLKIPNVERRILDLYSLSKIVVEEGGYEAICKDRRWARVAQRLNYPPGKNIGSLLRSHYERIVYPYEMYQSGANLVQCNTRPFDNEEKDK
Assay: EMSA; apparent Kd; EMSA: 50 mM HEPES pH 7.5, 50 mM KCl, 1 mM BME, 0.01% Tween-20, 0.01% BSA, 5% sucrose, 1 h on ice; 100 nM nucleosome or 147 bp DNA, 500 nM 20 bp DNA; gel at 4 C.
Conditions: protein: recombinant; tags: 6xHis-SUMO cleaved

B1: 5' flanking (linker) DNA 20 bp (dsDNA)
DNA 1: GGACCCTATACGCGGCCGCC
DNA 2: GGCGGCCGCGTATAGGGTCC
  Kd: 9.9 ± 0.4 µM
